Patent US20060084792A1 (UNITED STATES OF AMERICA AS REPRESENTED BY THE …, published 2006)

What was measured:
[1] = molecular target: the molecule itself; test: non-denaturing gradient PAGE (FIG. 18) and TEM; self-assembly of subunits
Protocol: (§1) The purity of the proteins was evaluated using denaturing polyacrylamide gel electrophoresis (GeneMate 8-16% Express Gels, ISC BioExpress). The ability of each of the circular permutations to form double rings was assessed by non-denaturing 4-40% gradient polyacrylamide gel (FIG. 18) as previously described (J K Trent, et al., 1991 Nature 354:490-493).
(§2) Samples were prepared for the electron microscope by drop casting on carbon-coated formvar substrates (Ladd) and stained with 1% uranyl acetate. Samples were visualized using a Leo 912AB electron microscope in bright field TEM mode at 65 kV with a tungsten filament electron source.
(§3) Samples of the five different circular permutated chaperonin polypeptides (without the joined EYFP sequence) were analyzed at 1 hour or 24 hours after addition of 1 mM ATP and 25 mM Mg²⁺ (FIG. 19A-J). All five circular permuted chaperonins analyzed formed double rings having the same structure as wild-type chaperonin double rings, with two rings of nine subunits each (FIG. 19A-E). […] The circular permutated chaperonin polypeptides 480 and 499 formed predominantly filamentous structures. For permutants at positions 480 and 499, heating the sample to 70 degrees C. for 30 minutes immediately after addition of ATP and Mg²⁺ produced longer filaments.

[2] = molecular target: the molecule itself; test: summary of native PAGE and TEM; self-assembly of subunits
Protocol: as §1, §2, §3

[3] = molecular target: the molecule itself; test: TEM, negative stain, after adding 1 mM ATP and 25 mM Mg2+; self-assembly of subunits
Protocol: as §2, §3

Protein | binding result [1] | further results
position 480 circular permutant chaperonin protein (Sulfolobus shibatae TF55 beta subunit, termini relocated after residue 480) (other, Entry is the single subunit; Original termini are joined by the linker GGSGGT; Assembles into double rings with two rings of nine subunits each; also called circular permutant at position 480; permutant 480) MANKWYGLNLFTGNPEDMWKLGVIEPALVKMNAIKAATEAVTLVLRIDDIVGGSGGTIPVIILKEGSSRTYGKEALRANIAAVKAIEEALKSTYGPRGMDKILVDSLGDITITNDGATILDKMDLQHPTGKLLVQIAKGQDEETADGTKTAVILAGELAKKAEDLLYKEIHPTIIVSGYKKAEEIALKTIQDIAQPVSINDTDVLRKVALTSLGSKAVAGAREYLADLVVKAVAQVAELRGDKWYVDLDNVQIVKKHGGSINDTQLVYGIVVDKEVVHPGMPKRIENAKIALLDASLEVEKPELDAEIRINDPTQMHKFLEEEENILKEKVDKIAATGANVVIAQKGIDEVAQHYLAKKGILAVRRAKKSDLEKLARATGGRVISNIDELTSQDLGYAALVEERKVGEDKIVFVEGAKNPKSVSILIRGGLERVVDETERALRDALGTVADVIRDGRAVAGGGAVEIEIAKRLRKYAPQVGGKEQLAIEAYANAIEGLIMILAENAGLDPIDKLMQLRSLHENET | binds | –
position 499 circular permutant chaperonin protein (Sulfolobus shibatae TF55 beta subunit, termini relocated after residue 499) (other, Entry is the single subunit; Original termini are joined by the linker GGSGGT; Assembles into double rings with two rings of nine subunits each; also called circular permutant at position 499; permutant 499) MALGVIEPALVKMNAIKAATEAVTLVLRIDDIVGGSGGTIPVIILKEGSSRTYGKEALRANIAAVKAIEEALKSTYGPRGMDKILVDSLGDITITNDGATILDKMDLQHPTGKLLVQIAKGQDEETADGTKTAVILAGELAKKAEDLLYKEIHPTIIVSGYKKAEEIALKTIQDIAQPVSINDTDVLRKVALTSLGSKAVAGAREYLADLVVKAVAQVAELRGDKWYVDLDNVQIVKKHGGSINDTQLVYGIVVDKEVVHPGMPKRIENAKIALLDASLEVEKPELDAEIRINDPTQMHKFLEEEENILKEKVDKIAATGANVVIAQKGIDEVAQHYLAKKGILAVRRAKKSDLEKLARATGGRVISNIDELTSQDLGYAALVEERKVGEDKIVFVEGAKNPKSVSILIRGGLERVVDETERALRDALGTVADVIRDGRAVAGGGAVEIEIAKRLRKYAPQVGGKEQLAIEAYANAIEGLIMILAENAGLDPIDKLMQLRSLHENETNKWYGLNLFTGNPEDMWK | binds | –
position 267 circular permutant chaperonin protein (Sulfolobus shibatae TF55 beta subunit, termini relocated after residue 267) (other, Entry is the single subunit; Original termini are joined by the linker GGSGGT; Assembles into double rings with two rings of nine subunits each) MADPTQMHKFLEEEENILKEKVDKIAATGANVVIAQKGIDEVAQHYLAKKGILAVRRAKKSDLEKLARATGGRVISNIDELTSQDLGYAALVEERKVGEDKIVFVEGAKNPKSVSILIRGGLERVVDETERALRDALGTVADVIRDGRAVAGGGAVEIEIAKRLRKYAPQVGGKEQLAIEAYANAIEGLIMILAENAGLDPIDKLMQLRSLHENETNKWYGLNLFTGNPEDMWKLGVIEPALVKMNAIKAATEAVTLVLRIDDIVGGSGGTIPVIILKEGSSRTYGKEALRANIAAVKAIEEALKSTYGPRGMDKILVDSLGDITITNDGATILDKMDLQHPTGKLLVQIAKGQDEETADGTKTAVILAGELAKKAEDLLYKEIHPTIIVSGYKKAEEIALKTIQDIAQPVSINDTDVLRKVALTSLGSKAVAGAREYLADLVVKAVAQVAELRGDKWYVDLDNVQIVKKHGGSINDTQLVYGIVVDKEVVHPGMPKRIENAKIALLDASLEVEKPELDAEIRIN | – | binding result [2]: binds
position 316 circular permutant chaperonin protein (Sulfolobus shibatae TF55 beta subunit, termini relocated after residue 316) (other, Entry is the single subunit; Original termini are joined by the linker GGSGGT; Assembles into double rings with two rings of nine subunits each; also called circular permutant at position 316; permutant 316) MAILAVRRAKKSDLEKLARATGGRVISNIDELTSQDLGYAALVEERKVGEDKIVFVEGAKNPKSVSILIRGGLERVVDETERALRDALGTVADVIRDGRAVAGGGAVEIEIAKRLRKYAPQVGGKEQLAIEAYANAIEGLIMILAENAGLDPIDKLMQLRSLHENETNKWYGLNLFTGNPEDMWKLGVIEPALVKMNAIKAATEAVTLVLRIDDIVGGSGGTIPVIILKEGSSRTYGKEALRANIAAVKAIEEALKSTYGPRGMDKILVDSLGDITITNDGATILDKMDLQHPTGKLLVQIAKGQDEETADGTKTAVILAGELAKKAEDLLYKEIHPTIIVSGYKKAEEIALKTIQDIAQPVSINDTDVLRKVALTSLGSKAVAGAREYLADLVVKAVAQVAELRGDKWYVDLDNVQIVKKHGGSINDTQLVYGIVVDKEVVHPGMPKRIENAKIALLDASLEVEKPELDAEIRINDPTQMHKFLEEEENILKEKVDKIAATGANVVIAQKGIDEVAQHYLAKKG | binds | –
position 153 circular permutant chaperonin protein (Sulfolobus shibatae TF55 beta subunit, termini relocated after residue 153) (other, Entry is the single subunit; Original termini are joined by the linker GGSGGT; also called circular permutant at position 153; permutant 153) MAINDTDVLRKVALTSLGSKAVAGAREYLADLVVKAVAQVAELRGDKWYVDLDNVQIVKKHGGSINDTQLVYGIVVDKEVVHPGMPKRIENAKIALLDASLEVEKPELDAEIRINDPTQMHKFLEEEENILKEKVDKIAATGANVVIAQKGIDEVAQHYLAKKGILAVRRAKKSDLEKLARATGGRVISNIDELTSQDLGYAALVEERKVGEDKIVFVEGAKNPKSVSILIRGGLERVVDETERALRDALGTVADVIRDGRAVAGGGAVEIEIAKRLRKYAPQVGGKEQLAIEAYANAIEGLIMILAENAGLDPIDKLMQLRSLHENETNKWYGLNLFTGNPEDMWKLGVIEPALVKMNAIKAATEAVTLVLRIDDIVGGSGGTIPVIILKEGSSRTYGKEALRANIAAVKAIEEALKSTYGPRGMDKILVDSLGDITITNDGATILDKMDLQHPTGKLLVQIAKGQDEETADGTKTAVILAGELAKKAEDLLYKEIHPTIIVSGYKKAEEIALKTIQDIAQPVS | – | binding result [3]: binds
